Columns and labels:
Experiment in all cases: holdup assay
Parameters in all cases: key: below the threshold = too weak to quantify, mostly under pKd 3.1 to 4
TJP3_3, O95049 = target: T1, TJP3_3, O95049
T1 sequence (O95049 375-456, limits assumed, looked up): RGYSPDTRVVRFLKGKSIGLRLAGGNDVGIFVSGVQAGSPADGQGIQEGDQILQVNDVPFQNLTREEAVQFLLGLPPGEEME

AHNAK1, Q09666 = target: AHNAK1, Q09666
SCRIB_3, Q14160 = target: SCRIB_3, Q14160
FRMPD3, Q5JV73 = target: FRMPD3, Q5JV73
DLG3_3, Q92796 = target: T2, DLG3_3, Q92796
T2 sequence (Q92796 374-475, limits assumed, looked up): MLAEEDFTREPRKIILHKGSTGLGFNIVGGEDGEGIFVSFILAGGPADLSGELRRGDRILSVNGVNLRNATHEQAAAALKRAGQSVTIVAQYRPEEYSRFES

PTPN3, P26045 = target: PTPN3, P26045
SHANK1, Q9Y566 = target: T3, SHANK1, Q9Y566
T3 sequence (Q9Y566 658-767, limits assumed, looked up): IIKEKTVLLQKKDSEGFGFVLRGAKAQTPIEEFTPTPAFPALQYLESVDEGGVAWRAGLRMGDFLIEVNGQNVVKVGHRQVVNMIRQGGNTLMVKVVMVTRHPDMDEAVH

SNTG2, Q9NY99 = target: T4, SNTG2, Q9NY99
T4 sequence (Q9NY99 68-166, limits assumed, looked up): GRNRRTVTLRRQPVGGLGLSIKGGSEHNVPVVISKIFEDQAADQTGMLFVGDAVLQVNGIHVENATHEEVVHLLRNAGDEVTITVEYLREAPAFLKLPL

SIPA1L2, Q9P2F8 = target: T5, SIPA1L2, Q9P2F8
T5 sequence (Q9P2F8 945-1036, limits assumed, looked up): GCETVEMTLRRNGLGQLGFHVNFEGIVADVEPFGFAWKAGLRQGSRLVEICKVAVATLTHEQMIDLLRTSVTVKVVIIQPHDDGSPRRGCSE

ARHGAP21, Q5T5U3 = target: T6, ARHGAP21, Q5T5U3
T6 sequence (Q5T5U3 45-169, limits assumed, looked up): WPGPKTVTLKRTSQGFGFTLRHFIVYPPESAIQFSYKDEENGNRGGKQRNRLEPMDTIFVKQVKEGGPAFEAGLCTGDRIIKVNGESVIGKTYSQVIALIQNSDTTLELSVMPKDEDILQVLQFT

NHERF4_2, Q86UT5 = target: NHERF4_2, Q86UT5
PTPN13_1, Q12923 = target: T7, PTPN13_1, Q12923
T7 sequence (Q12923 1088-1188, limits assumed, looked up): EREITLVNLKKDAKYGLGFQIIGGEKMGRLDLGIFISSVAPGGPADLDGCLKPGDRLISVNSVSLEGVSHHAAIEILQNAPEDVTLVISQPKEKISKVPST

DLG4_2, P78352 = target: DLG4_2, P78352
SCRIB_2, Q14160 = target: SCRIB_2, Q14160
GRASP, Q7Z6J2 = target: GRASP, Q7Z6J2
SCRIB_1, Q14160 = target: SCRIB_1, Q14160
DLG2_2, Q15700 = target: DLG2_2, Q15700
SYNJ2BP, P57105 = target: T8, SYNJ2BP, P57105
T8 sequence (P57105 8-110, limits assumed, looked up): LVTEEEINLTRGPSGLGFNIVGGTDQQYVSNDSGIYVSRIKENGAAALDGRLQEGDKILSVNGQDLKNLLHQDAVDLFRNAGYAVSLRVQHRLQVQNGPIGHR

Inadl_6, Q8NI35 = target: Inadl_6, Q8NI35
MPP2, Q14168 = target: T9, MPP2, Q14168
T9 sequence (Q14168 180-250, limits assumed, looked up): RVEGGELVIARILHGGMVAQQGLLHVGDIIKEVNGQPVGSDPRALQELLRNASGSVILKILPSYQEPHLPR

LRRC7, Q96NW7 = target: T10, LRRC7, Q96NW7
T10 sequence (Q96NW7 1440-1537, limits assumed, looked up): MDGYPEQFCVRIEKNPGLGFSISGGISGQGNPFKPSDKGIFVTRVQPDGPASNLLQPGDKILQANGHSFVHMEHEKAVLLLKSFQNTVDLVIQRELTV

PDZRN4_1, Q6ZMN7 = target: PDZRN4_1, Q6ZMN7
DFNB31_1, Q9P202 = target: T11, DFNB31_1, Q9P202
T11 sequence (Q9P202 135-233, limits assumed, looked up): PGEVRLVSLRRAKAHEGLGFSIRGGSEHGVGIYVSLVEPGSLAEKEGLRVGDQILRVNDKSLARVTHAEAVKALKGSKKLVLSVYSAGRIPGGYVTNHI

NHERF2_2, Q15599 = target: NHERF2_2, Q15599
DLG3_2, Q92796 = target: T12, DLG3_2, Q92796
T12 sequence (Q92796 221-321, limits assumed, looked up): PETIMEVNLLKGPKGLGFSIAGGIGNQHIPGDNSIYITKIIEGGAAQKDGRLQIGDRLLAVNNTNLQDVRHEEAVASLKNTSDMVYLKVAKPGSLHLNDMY

LNX1_2, Q8TBB1 = target: LNX1_2, Q8TBB1
[1] = plain residues with an end cap or a label only (N-terminal biotin on a linker: ahx)
[2] = plain residues with an end cap or a label only (N-terminal biotin on a linker: ttds)

SCRIB_1, Q14160, sequence (Q14160 718-814): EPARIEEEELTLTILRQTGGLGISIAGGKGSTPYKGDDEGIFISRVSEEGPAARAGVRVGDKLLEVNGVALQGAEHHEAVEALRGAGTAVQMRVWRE
SCRIB_2, Q14160, sequence (Q14160 857-960): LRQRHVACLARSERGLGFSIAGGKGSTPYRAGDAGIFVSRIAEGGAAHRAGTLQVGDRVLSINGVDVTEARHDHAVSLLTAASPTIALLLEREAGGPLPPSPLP
SCRIB_3, Q14160, sequence (Q14160 999-1103): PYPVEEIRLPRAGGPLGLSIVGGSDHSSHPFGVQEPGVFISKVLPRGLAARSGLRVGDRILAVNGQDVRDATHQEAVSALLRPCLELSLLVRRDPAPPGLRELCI
NHERF2_2, Q15599, sequence (Q15599 142-238): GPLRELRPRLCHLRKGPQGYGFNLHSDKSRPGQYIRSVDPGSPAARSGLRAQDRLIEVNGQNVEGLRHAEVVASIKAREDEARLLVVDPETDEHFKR
FRMPD3, Q5JV73, sequence (Q5JV73 12-100): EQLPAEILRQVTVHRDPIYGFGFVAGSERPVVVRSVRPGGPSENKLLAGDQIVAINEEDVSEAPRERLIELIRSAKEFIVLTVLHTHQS
NHERF4_2, Q86UT5, sequence (Q86UT5 220-308): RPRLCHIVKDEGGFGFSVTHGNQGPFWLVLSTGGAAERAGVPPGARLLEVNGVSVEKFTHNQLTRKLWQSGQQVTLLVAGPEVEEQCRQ
LNX1_2, Q8TBB1, sequence (Q8TBB1 371-470): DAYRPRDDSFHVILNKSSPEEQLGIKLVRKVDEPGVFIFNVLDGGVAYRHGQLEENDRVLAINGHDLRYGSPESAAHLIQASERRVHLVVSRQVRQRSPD
Inadl_6, Q8NI35, sequence (Q8NI35 1058-1167): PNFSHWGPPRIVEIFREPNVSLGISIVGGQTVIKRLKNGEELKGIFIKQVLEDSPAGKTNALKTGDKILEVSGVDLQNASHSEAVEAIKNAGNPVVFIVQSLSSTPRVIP
PDZRN4_1, Q6ZMN7, sequence (Q6ZMN7 213-318): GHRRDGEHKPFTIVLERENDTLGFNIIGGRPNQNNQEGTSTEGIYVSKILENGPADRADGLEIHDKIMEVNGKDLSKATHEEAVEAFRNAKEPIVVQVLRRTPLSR
DLG2_2, Q15700, sequence (Q15700 189-283): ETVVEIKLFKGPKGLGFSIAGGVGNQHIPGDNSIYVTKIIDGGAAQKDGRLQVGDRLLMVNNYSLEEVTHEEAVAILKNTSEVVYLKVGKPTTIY
AHNAK1, Q09666, sequence (Q09666 4-100): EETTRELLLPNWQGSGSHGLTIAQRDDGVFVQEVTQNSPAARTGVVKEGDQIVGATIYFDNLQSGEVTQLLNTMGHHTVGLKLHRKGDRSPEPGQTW
PTPN3, P26045, sequence (P26045 505-587): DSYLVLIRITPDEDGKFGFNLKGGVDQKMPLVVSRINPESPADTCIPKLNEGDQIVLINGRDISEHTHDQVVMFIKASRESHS
DLG4_2, P78352, sequence (P78352 155-259): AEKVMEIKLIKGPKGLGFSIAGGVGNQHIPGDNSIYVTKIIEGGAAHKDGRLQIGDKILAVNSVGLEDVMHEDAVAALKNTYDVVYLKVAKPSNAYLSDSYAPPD
GRASP, Q7Z6J2, sequence (Q7Z6J2 96-193): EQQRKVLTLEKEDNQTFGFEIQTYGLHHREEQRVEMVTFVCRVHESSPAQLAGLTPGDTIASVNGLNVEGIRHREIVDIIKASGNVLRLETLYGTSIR

B1: TMEM215, Q68D42 (peptide)
chain: QGRWDHETIV
**Q.** B1 was tested. Which pKd (TJP3_3, O95049; [1]) did it give?
**A.** 3.62

**Q.** And the pKd (AHNAK1, Q09666; [1])?
**A.** 3.64

**Q.** And the pKd (SCRIB_3, Q14160; [1])?
**A.** 4.06

**Q.** And the pKd (FRMPD3, Q5JV73; [1])?
**A.** below the threshold

**Q.** What about the pKd (DLG3_3, Q92796; [1]) of the same binder?
**A.** 3.87

**Q.** What about the pKd (PTPN3, P26045; [1]) of the same binder?
**A.** 4.19

**Q.** And the pKd (SHANK1, Q9Y566; [1])?
**A.** 3.57

**Q.** And the pKd (SNTG2, Q9NY99; [1])?
**A.** 4.58

**Q.** And the pKd (SIPA1L2, Q9P2F8; [1])?
**A.** below the threshold

**Q.** What about the pKd (ARHGAP21, Q5T5U3; [1]) of the same binder?
**A.** below the threshold

**Q.** And the pKd (NHERF4_2, Q86UT5; [1])?
**A.** below the threshold

**Q.** What about the pKd (PTPN13_1, Q12923; [1]) of the same binder?
**A.** below the threshold

**Q.** What about the pKd (DLG4_2, P78352; [1]) of the same binder?
**A.** 4.66

**Q.** And the pKd (SCRIB_2, Q14160; [1])?
**A.** 4.08

**Q.** What about the pKd (GRASP, Q7Z6J2; [1]) of the same binder?
**A.** below the threshold

**Q.** And the pKd (SCRIB_1, Q14160; [1])?
**A.** 4.11

**Q.** And the pKd (DLG2_2, Q15700; [1])?
**A.** 4.07

**Q.** What about the pKd (SYNJ2BP, P57105; [1]) of the same binder?
**A.** 4.14

**Q.** What about the pKd (Inadl_6, Q8NI35; [1]) of the same binder?
**A.** 3.98

**Q.** What about the pKd (MPP2, Q14168; [1]) of the same binder?
**A.** below the threshold

**Q.** And the pKd (LRRC7, Q96NW7; [1])?
**A.** 3.76

**Q.** And the pKd (PDZRN4_1, Q6ZMN7; [1])?
**A.** 3.67

**Q.** And the pKd (DFNB31_1, Q9P202; [1])?
**A.** 3.86

**Q.** And the pKd (NHERF2_2, Q15599; [1])?
**A.** below the threshold

**Q.** What about the pKd (DLG3_2, Q92796; [1]) of the same binder?
**A.** 4.8

**Q.** What about the pKd (LNX1_2, Q8TBB1; [1]) of the same binder?
**A.** 4.23

B2: HPV51-E6, P26554 (peptide)
chain: RTRQRNETQV
**Q.** For B2, which pKd (TJP3_3, O95049; [2]) is on record?
**A.** below the threshold

**Q.** What about the pKd (AHNAK1, Q09666; [2]) of the same binder?
**A.** below the threshold

**Q.** What about the pKd (SCRIB_3, Q14160; [2]) of the same binder?
**A.** 4.17

**Q.** And the pKd (FRMPD3, Q5JV73; [2])?
**A.** below the threshold

**Q.** What about the pKd (DLG3_3, Q92796; [2]) of the same binder?
**A.** 4.91

**Q.** What about the pKd (PTPN3, P26045; [2]) of the same binder?
**A.** 4.38

**Q.** What about the pKd (SHANK1, Q9Y566; [2]) of the same binder?
**A.** below the threshold

**Q.** And the pKd (SNTG2, Q9NY99; [2])?
**A.** 4.22

**Q.** What about the pKd (SIPA1L2, Q9P2F8; [2]) of the same binder?
**A.** below the threshold

**Q.** And the pKd (ARHGAP21, Q5T5U3; [2])?
**A.** below the threshold

**Q.** What about the pKd (NHERF4_2, Q86UT5; [2]) of the same binder?
**A.** below the threshold

**Q.** And the pKd (PTPN13_1, Q12923; [2])?
**A.** below the threshold

**Q.** And the pKd (DLG4_2, P78352; [2])?
**A.** 4.99

**Q.** And the pKd (SCRIB_2, Q14160; [2])?
**A.** 4.39

**Q.** And the pKd (GRASP, Q7Z6J2; [2])?
**A.** below the threshold

**Q.** What about the pKd (SCRIB_1, Q14160; [2]) of the same binder?
**A.** 4.56

**Q.** And the pKd (DLG2_2, Q15700; [2])?
**A.** 4.97

**Q.** What about the pKd (SYNJ2BP, P57105; [2]) of the same binder?
**A.** 5.02

**Q.** And the pKd (Inadl_6, Q8NI35; [2])?
**A.** below the threshold

**Q.** And the pKd (MPP2, Q14168; [2])?
**A.** below the threshold

**Q.** And the pKd (LRRC7, Q96NW7; [2])?
**A.** below the threshold

**Q.** And the pKd (PDZRN4_1, Q6ZMN7; [2])?
**A.** 4.16

**Q.** And the pKd (DFNB31_1, Q9P202; [2])?
**A.** 3.47

**Q.** And the pKd (NHERF2_2, Q15599; [2])?
**A.** below the threshold

**Q.** What about the pKd (DLG3_2, Q92796; [2]) of the same binder?
**A.** 5.1

**Q.** What about the pKd (LNX1_2, Q8TBB1; [2]) of the same binder?
**A.** below the threshold

B3: ABRAXAS2, Q15018 (peptide)
chain: DPRNTQTSQI
**Q.** For B3, which pKd (TJP3_3, O95049; [2]) is on record?
**A.** below the threshold

**Q.** What about the pKd (AHNAK1, Q09666; [2]) of the same binder?
**A.** 3.53

**Q.** What about the pKd (SCRIB_3, Q14160; [2]) of the same binder?
**A.** 4.01

**Q.** What about the pKd (FRMPD3, Q5JV73; [2]) of the same binder?
**A.** below the threshold

**Q.** What about the pKd (DLG3_3, Q92796; [2]) of the same binder?
**A.** 3.66

**Q.** What about the pKd (PTPN3, P26045; [2]) of the same binder?
**A.** 3.77

**Q.** And the pKd (SHANK1, Q9Y566; [2])?
**A.** below the threshold

**Q.** What about the pKd (SNTG2, Q9NY99; [2]) of the same binder?
**A.** 3.7

**Q.** And the pKd (SIPA1L2, Q9P2F8; [2])?
**A.** below the threshold

**Q.** What about the pKd (ARHGAP21, Q5T5U3; [2]) of the same binder?
**A.** below the threshold

**Q.** And the pKd (NHERF4_2, Q86UT5; [2])?
**A.** below the threshold

**Q.** And the pKd (PTPN13_1, Q12923; [2])?
**A.** below the threshold

**Q.** And the pKd (DLG4_2, P78352; [2])?
**A.** 3.55

**Q.** What about the pKd (SCRIB_2, Q14160; [2]) of the same binder?
**A.** below the threshold

**Q.** What about the pKd (GRASP, Q7Z6J2; [2]) of the same binder?
**A.** 3.95

**Q.** And the pKd (SCRIB_1, Q14160; [2])?
**A.** 4.02

**Q.** And the pKd (DLG2_2, Q15700; [2])?
**A.** below the threshold

**Q.** What about the pKd (SYNJ2BP, P57105; [2]) of the same binder?
**A.** 3.68

**Q.** And the pKd (Inadl_6, Q8NI35; [2])?
**A.** below the threshold

**Q.** What about the pKd (MPP2, Q14168; [2]) of the same binder?
**A.** below the threshold

**Q.** What about the pKd (LRRC7, Q96NW7; [2]) of the same binder?
**A.** below the threshold

**Q.** And the pKd (PDZRN4_1, Q6ZMN7; [2])?
**A.** 3.56

**Q.** And the pKd (DFNB31_1, Q9P202; [2])?
**A.** 4.06

**Q.** What about the pKd (NHERF2_2, Q15599; [2]) of the same binder?
**A.** 3.6

**Q.** What about the pKd (DLG3_2, Q92796; [2]) of the same binder?
**A.** 3.81

**Q.** What about the pKd (LNX1_2, Q8TBB1; [2]) of the same binder?
**A.** below the threshold

From paper PMC9482650, “Quantitative fragmentomics allow affinity mapping of interactomes” (Nature Communications, 2022)
